Experimental findings from patent US20140179896A1 (published 2014) are described below.

Experiment [1] concerns the target T1, mouse vascular endothelial growth factor receptor-2 Fc chimera (Flk-1-Fc) (mouse, UniProt P35918 20-762).
T1 construct: Bought from R&D Systems; also called mouse VEGFR-2; not shown: Fc part of the purchased chimera, not specified
Description: radioactive equilibrium binding assay, 1 nM Flk-1-Fc, % of input bound. How it is done: (§1) To prepare ³⁵S-labeled binding proteins for analysis, mRNA was prepared as described above for RNA-protein fusion production but the linker ligation step was omitted. The mRNA was expressed using rabbit reticulocyte lysate translation kit (Ambion) in the presence of ³⁵S-labeled Met at 30° C. for 1 hour. Expressed protein was purified on M2-agarose Flag beads (Sigma) as described above. This procedure produced the encoded protein without the nucleic acid tail. In a direct binding assay, VEGF-R2-Fc fusions in concentrations ranging from 0 to 200 nM were added to a constant concentration of the purified protein (0.2 or 0.5 nM) and incubated at 30° C. for 1 hour in buffer B. The receptor-binder complexes were captured using Protein A magnetic beads for another 10 minutes at room temperature using a Kingfisher™ The beads were washed with six reaction volumes of buffer B. The protein was eluted from the beads with 100 μL of 0.1 M KOH. […] of the reaction mixture and elution were dried onto a LumaPlate-96 (Packard) and the amount of ³⁵S on the plate was measured using a TopCount NXT instrument (Packard). The amount of fibronectin-based scaffold protein bound to the target was estimated as a percent of radioactivity eluted from Protein A magnetic beads compare to radioactivity in the reaction mixture. Nonspecific binding of fibronectin-based scaffold proteins to the beads was determined by measuring binding in the absence of KDR-Fc and represented less than 1-2% of the input. Specific binding was obtained through subtraction of nonspecific binding from total binding. Data was analyzed using the GraphPad Prizm software (GraphPad Software, Inc, San Diego, Calif.), fitted using a one site, non-linear binding equation.

For experiment [2], the target named is T2, human vascular endothelial growth factor receptor-2 Fc chimera (KDR-Fc) (human, UniProt P35968 20-764).
T2 construct: range 1-764; also called human VEGFR-2; not shown: human IgG1 Fc
Description: radioactive equilibrium binding assay, 1 nM KDR-Fc, % of input bound. How it is done:
as §1

T2 sequence (P35968 20-764 limits assumed, change not shown, form in doubt): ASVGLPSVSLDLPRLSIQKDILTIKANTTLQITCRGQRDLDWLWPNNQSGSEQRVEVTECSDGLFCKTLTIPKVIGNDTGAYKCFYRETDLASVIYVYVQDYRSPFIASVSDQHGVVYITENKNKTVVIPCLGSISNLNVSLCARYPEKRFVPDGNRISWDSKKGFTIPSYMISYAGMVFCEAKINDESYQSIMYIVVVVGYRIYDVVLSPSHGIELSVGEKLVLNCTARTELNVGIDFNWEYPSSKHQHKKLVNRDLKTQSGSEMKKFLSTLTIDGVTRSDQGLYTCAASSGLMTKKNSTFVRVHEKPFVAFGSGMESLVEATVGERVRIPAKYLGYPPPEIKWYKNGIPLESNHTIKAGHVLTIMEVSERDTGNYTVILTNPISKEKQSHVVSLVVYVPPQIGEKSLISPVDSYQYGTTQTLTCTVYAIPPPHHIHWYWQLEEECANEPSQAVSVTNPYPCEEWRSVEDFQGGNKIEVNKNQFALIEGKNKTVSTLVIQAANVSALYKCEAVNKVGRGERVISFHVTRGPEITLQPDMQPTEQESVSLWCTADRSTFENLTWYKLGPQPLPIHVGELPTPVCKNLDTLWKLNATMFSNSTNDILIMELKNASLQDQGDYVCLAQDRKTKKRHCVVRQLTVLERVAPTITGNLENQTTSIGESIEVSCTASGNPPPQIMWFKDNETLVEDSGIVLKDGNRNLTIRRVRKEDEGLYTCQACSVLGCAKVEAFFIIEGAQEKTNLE
T1 sequence (P35918 20-762, change not shown): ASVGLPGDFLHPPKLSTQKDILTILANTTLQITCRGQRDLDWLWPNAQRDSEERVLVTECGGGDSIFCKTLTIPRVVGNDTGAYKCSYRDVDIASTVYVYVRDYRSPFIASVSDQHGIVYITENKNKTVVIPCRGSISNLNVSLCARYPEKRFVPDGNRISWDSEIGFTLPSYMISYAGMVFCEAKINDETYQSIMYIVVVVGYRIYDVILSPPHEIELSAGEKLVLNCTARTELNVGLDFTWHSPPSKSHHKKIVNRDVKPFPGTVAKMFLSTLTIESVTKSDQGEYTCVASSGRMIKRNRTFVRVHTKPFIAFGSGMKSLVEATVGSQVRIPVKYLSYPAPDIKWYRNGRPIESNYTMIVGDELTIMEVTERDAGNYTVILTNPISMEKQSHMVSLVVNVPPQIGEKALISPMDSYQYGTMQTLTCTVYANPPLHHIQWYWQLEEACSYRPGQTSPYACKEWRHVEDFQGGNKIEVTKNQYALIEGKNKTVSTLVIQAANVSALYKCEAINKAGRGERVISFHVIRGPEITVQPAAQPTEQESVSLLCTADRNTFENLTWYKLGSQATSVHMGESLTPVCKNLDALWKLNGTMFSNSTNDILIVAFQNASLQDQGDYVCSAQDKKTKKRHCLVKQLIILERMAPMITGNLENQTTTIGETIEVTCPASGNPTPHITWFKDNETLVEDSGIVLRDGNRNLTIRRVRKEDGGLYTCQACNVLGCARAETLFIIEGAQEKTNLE

B1: B5 (designed binder)
chain: EVVAATPTSLLISWRHPHFPTRYYRITYGETGGNSPVQEFTVPLQPPTATISGLKPGVDYTITGYAVTQERNGRELMTPISINYRT
notes: 10Fn3 clone, Del 1-8
As to B1, the “Binding to 1 nM Flk-1, %” value in experiment [1] came out at 24%. The “Binding to 1 nM KDR, %” value in experiment [2] stood at 27%.

B2: B12 (designed binder)
chain: EVVAATPTSLLISWRHPHFPTRYYRITYGETGGNSPVQEFTVPLQPPTATISGLKPGVDYTITGYAVTVERNGRELRTPISINYRT
notes: 10Fn3 clone, Del 1-8
With B2, in experiment [1], the “Binding to 1 nM Flk-1, %” value amounted to 24%. The “Binding to 1 nM KDR, %” value in experiment [2] was 29%.

B3: D5 (designed binder)
chain: EVVAATPTSLLISWRHPHFPTRYYRITYGETGGNSPVQEFTVPLQPPTATISGLKPGVDYTITGYAVTVERNGRTLMMPISINYRT
notes: 10Fn3 clone, Del 1-8
B3: the “Binding to 1 nM Flk-1, %” value in experiment [1] was found to be 23%. Also, the “Binding to 1 nM KDR, %” value in experiment [2] came to 38%.

B4: D4 (designed binder)
chain: EVVAATPTSLLISWRHPHFPTRYYRITYGETGGNSPVQEFTVPLQPPTATISGLKPGVDYTITGYAVTVERNGRTLFTPISINYRT
notes: 10Fn3 clone, Del 1-8
B4: the “Binding to 1 nM Flk-1, %” value in experiment [1] was determined as 44%. Further, in experiment [2], the “Binding to 1 nM KDR, %” value was determined as 27%.

B5: D2 (designed binder)
chain: EVVAATPTSLLISWRHPHFPTRYYRITYGETGGNSPVQEFTVPLQPPTATISGLKPGVDYTITGYAVTVERNGRNLMTPISINYRT
notes: 10Fn3 clone, Del 1-8
Turning to B5, the “Binding to 1 nM Flk-1, %” value in experiment [1] stood at 30%. Besides, in experiment [2], the “Binding to 1 nM KDR, %” value was 35%.

B6: E10 (designed binder)
chain: EVVAATPTSLLISWRHPHFPTRYYRITYGETGGNSPVQEFTVPLQPPTATISGLKPGVDYTITGYAVTEGRNGRELFIPISINYRT
For B6, the “Binding to 1 nM Flk-1, %” value in experiment [1] was 3%. For the same molecule, the “Binding to 1 nM KDR, %” value in experiment [2] came out at 53%.

B7: B7, B8 (designed binder)
chain: EVVAATPTSLLISWRHPHFPTRYYRITYGETGGNSPVQEFTVPLQPPTATISGLKPGVDYTITGYAVTVERNGRELLTPISINYRT
notes: 10Fn3 clone, Del 1-8
In the case of B7, the “Binding to 1 nM Flk-1, %” value in experiment [1] is 10%. Moreover, the “Binding to 1 nM KDR, %” value in experiment [2] came to 18%.

B8: D12 (designed binder)
chain: EVVAATPTSLLISWRHPHFPTRYYRITYGETGGNSPVQEFTVPLQPPTATISGLKPGVDYTITGYAVTVERNGRKLMTPISINYRT
notes: 10Fn3 clone, Del 1-8
For the molecule B8, in experiment [1], the “Binding to 1 nM Flk-1, %” value came out at 47%. Moreover, the “Binding to 1 nM KDR, %” value in experiment [2] worked out at 46%.

B9: C7 (designed binder)
chain: EVVAATPTSLLISWRHPHFPTRYYRITYGETGGNSPVQEFTVPLQPPTATISGLKPGVDYTITGYAVTHERNGRVLMTPISINYRT
notes: 10Fn3 clone, Del 1-8
As for B9, the “Binding to 1 nM Flk-1, %” value in experiment [1] is 40%. The “Binding to 1 nM KDR, %” value in experiment [2] was found to be 32%.

B10: D3 (designed binder)
chain: EVVAATPTSLLISWRHPHFPTRYYRITYGETGGNSPVQEFTVPLQPPTATISGLKPGVDYTITGYAVTVERNGRALMTPISINYRT
notes: 10Fn3 clone, Del 1-8
Consider B10, for which, in experiment [1], the “Binding to 1 nM Flk-1, %” value came out at 30%. Besides, the “Binding to 1 nM KDR, %” value in experiment [2] was 36%.

B11: C12 (designed binder)
chain: EVVAATPTSLLISWRHPHFPTRYYRITYGETGGNSPVQEFTVPLQPPTATISGLKPGVDYTITGYAVTVERNGRVLSVPISINYRT
notes: 10Fn3 clone, Del 1-8
Take B11: the “Binding to 1 nM Flk-1, %” value in experiment [1] worked out at 20%. In addition, in experiment [2], the “Binding to 1 nM KDR, %” value came out at 24%.

B12: C10 (designed binder)
chain: EVVAATPTSLLISWRHPHFPTRYYRITYGETGGNSPVQEFTVPLQPPTATISGLKPGVDYTITGYAVTVERNGRVLIIPISINYRT
notes: 10Fn3 clone, Del 1-8
On to B12, for which the “Binding to 1 nM Flk-1, %” value in experiment [1] was 17%. Further, the “Binding to 1 nM KDR, %” value in experiment [2] amounted to 24%.

B13: C3 (designed binder)
chain: EVVAATPTSLLISWRHPHFPTRYYRITYGETGGNSPVQEFTVPLQPPTATISGLKPGVDYTITGYAVTLERNGRELMIPISINYRT
notes: 10Fn3 clone, Del 1-8
In the case of B13, the “Binding to 1 nM Flk-1, %” value in experiment [1] worked out at 17%. Moreover, the “Binding to 1 nM KDR, %” value in experiment [2] worked out at 31%.

B14: B6 (designed binder)
chain: EVVAATPTSLLISWRHPHFPTRYYRITYGETGGNSPVQEFTVPLQPPTATISGLKPGVDYTITGYAVTLERNGKELMTPISINYRT
notes: 10Fn3 clone, Del 1-8
Take B14: the “Binding to 1 nM Flk-1, %” value in experiment [1] is 11%. Besides, in experiment [2], the “Binding to 1 nM KDR, %” value was 23%.

B15: B10 (designed binder)
chain: EVVAATPTSLLISWRHPHFPTRYYRITYGETGGNSPVQEFTVPLQPPTATISGLKPGVDYTITGYAVTLERNGRELNTPISINYRT
notes: 10Fn3 clone, Del 1-8
For B15, in experiment [1], the “Binding to 1 nM Flk-1, %” value was 23%. Further, the “Binding to 1 nM KDR, %” value in experiment [2] was 15%.

B16: C8 (designed binder)
chain: EVVAATPTSLLISWRHPHFPTRYYRITYGETGGNSPVQEFTVPLQPPTATISGLKPGVDYTITGYAVTLERNGRVLITPISINYRT
notes: 10Fn3 clone, Del 1-8
In the case of B16, the “Binding to 1 nM Flk-1, %” value in experiment [1] amounted to 34%. In experiment [2], the “Binding to 1 nM KDR, %” value was 30%.

B17: D9 (designed binder)
chain: EVVAATPTSLLISWRHPHFPTRYYRITYGETGGNSPVQEFTVPLQPPTATISGLKPGVDYTITGYAVTEERNGRVLFTPISINYRT
notes: 10Fn3 clone, Del 1-8
Turning to B17, in experiment [1], the “Binding to 1 nM Flk-1, %” value is 40%. In experiment [2], the “Binding to 1 nM KDR, %” value is 31%.

B18: D1 (designed binder)
chain: EVVAATPTSLLISWRHPHFPTRYYRITYGETGGNSPVQEFTVPLQPPTATISGLKPGVDYTITGYAVTVERNGRMLMTPISINYRT
notes: 10Fn3 clone, Del 1-8
B18: the “Binding to 1 nM Flk-1, %” value in experiment [1] is 38%. Moreover, the “Binding to 1 nM KDR, %” value in experiment [2] came to 38%.

B19: C9 (designed binder)
chain: EVVAATPTSLLISWRHPHFPTRYYRITYGETGGNSPVQEFTVPLQPPTATISGLKPGVDYTITGYAVTVERNGLVLMTPISINYRT
notes: 10Fn3 clone, Del 1-8
With B19, the “Binding to 1 nM Flk-1, %” value in experiment [1] was 7%. Further, in experiment [2], the “Binding to 1 nM KDR, %” value is 33%.

B20: E8 (designed binder)
chain: EVVAATPTSLLISWRHPHFPTRYYRITYGETGGNSPVQEFTVPLQPPTATISGLKPGVDYTITGYAVTEEWNGRVLMTPISINYRT
notes: 10Fn3 clone, Del 1-8
B20: in experiment [1], the “Binding to 1 nM Flk-1, %” value stood at 10%. The “Binding to 1 nM KDR, %” value in experiment [2] was 51%.

B21: D7 (designed binder)
chain: EVVAATPTSLLISWRHPHFPTRYYRITYGETGGNSPVQEFTVPLQPPTATISGLKPGVDYTITGYAVTVERNGKVLMTPISINYRT
notes: 10Fn3 clone, Del 1-8
As to B21, the “Binding to 1 nM Flk-1, %” value in experiment [1] was determined as 27%. Further, the “Binding to 1 nM KDR, %” value in experiment [2] was determined as 39%.

B22: D11 (designed binder)
chain: EVVAATPTSLLISWRHPHFPTRYYRITYGETGGNSPVQEFTVPLQPPTATISGLKPGVDYTITGYAVTVERNGHKLFTPISINYRT
notes: 10Fn3 clone, Del 1-8
With B22, the “Binding to 1 nM Flk-1, %” value in experiment [1] turned out to be 3%. In addition, in experiment [2], the “Binding to 1 nM KDR, %” value stood at 24%.

B23: C6 (designed binder)
chain: EVVAATPTSLLISWRHPHFPTRYYRITYGETGGNSPVQEFTVPLQPPTATISGLKPGVDYTITGYAVTLERNGRVLMTPISINYRT
notes: 10Fn3 clone, Del 1-8
Take B23: the “Binding to 1 nM Flk-1, %” value in experiment [1] worked out at 49%. For the same molecule, the “Binding to 1 nM KDR, %” value in experiment [2] came out at 36%.

B24: D6 (designed binder)
chain: EVVAATPTSLLISWRHPHFPTRYYRITYGETGGNSPVQEFTVPLQPPTATISGLKPGVDYTITGYAVTVERNGKTLMTPISINYRT
notes: 10Fn3 clone, Del 1-8
Take B24: the “Binding to 1 nM Flk-1, %” value in experiment [1] is 30%. In addition, in experiment [2], the “Binding to 1 nM KDR, %” value worked out at 32%.

B25: E12 (designed binder)
chain: EVVAATPTSLLISWRHPHFPTRYYRITYGETGGNSPVQEFTVPLQPPTATISGLKPGVDYTITGYAVTFARDGHEILTPISINYRT
notes: 10Fn3 clone, Del 1-8
For B25, the “Binding to 1 nM Flk-1, %” value in experiment [1] was found to be 1%. The “Binding to 1 nM KDR, %” value in experiment [2] was 36%.

B26: C11 (designed binder)
chain: EVVAATPTSLLISWRHPHFPTRYYRITYGETGGNSPVQEFTVPLQPPTATISGLKPGVDYTITGYAVTVERNGRVLIVPISINYRT
notes: 10Fn3 clone, Del 1-8
On to B26, for which the “Binding to 1 nM Flk-1, %” value in experiment [1] came out at 21%. Besides, the “Binding to 1 nM KDR, %” value in experiment [2] is 19%.

B27: C1 (designed binder)
chain: EVVAATPTSLLISWRHPHFPTRYYRITYGETGGNSPVQEFTVPLQPPTATISGLKPGVDYTITGYAVTQERNGRELRTPISINYRT
notes: 10Fn3 clone, Del 1-8
Regarding B27, the “Binding to 1 nM Flk-1, %” value in experiment [1] was 13%. For the same molecule, the “Binding to 1 nM KDR, %” value in experiment [2] was 28%.

B28: C2 (designed binder)
chain: EVVAATPTSLLISWRHPHFPTRYYRITYGETGGNSPVQEFTVPLQPPTATISGLKPGVDYTITGYAVTVERNGRELLWPISINYRT
notes: 10Fn3 clone, Del 1-8
With B28, the “Binding to 1 nM Flk-1, %” value in experiment [1] was 16%. The “Binding to 1 nM KDR, %” value in experiment [2] came out at 40%.
